According to patent US20130108636A1:

What was measured:
gp140Con-s [1] = assay: SPR; target not given, taken from Example 5
gp140Con-s [2] = assay: SPR (Biacore X100), gp140 amine-coupled on a CM5 chip, single-cycle, monovalent model

Substance “D1D2 (from UniProt P01730 26-203) (receptor)” has a koff (gp140Con-s [1]) of 0.0013 s⁻¹ and a Kd (gp140Con-s [2]) of 7.8 nM.

mD1-CH2 (from UniProt P01730 26-124) gave a fold decrease of association rate constant compared to mD1 (gp140Con-s [1]) of 80 fold, a koff (gp140Con-s [1]) of 0.0009 s⁻¹ and a kon (gp140Con-s [1]) of 61000 M⁻¹ s⁻¹.
